Data on 31 sequences can be found in a protein production outcome set (Wang et al. 2014).

A short description of the data set: label from the status in PepcDB records.

For “DDPEQFEVIKQQKEIIEHGIELFNKKPKRGIQFLQEQGMLGTSVEDIAQFLHQEERLDSTQVGDFLGDSARFNKEVMYAYVDQLDFCEKEFVSALRTFLEGFRLPGEAQKIDRLMEKFAARYIECNQGQTLFASADTAYVLAYSIIMLTTDLHSPQVKNKMTKEQYIKMNRGINDSKD”, the protein production entry is “failed”. On to “DDSLGEAVTTRAEALTIPAVLRARNLLSTTVARTPLVCDGTLPPFVPVAAPPGAATMQTPFHRMLATADDLLFNGVACWALDRDESGTCIGAIHIPLDTWQIEENTVRVNGKAVDPMEVCIFVGIHGGLLTHASETFTDARNLVRAAARVAQNPAALIELRQTNNAQLSPDDVDRIINGYVAARRGRNSGVGFSSSGLEVHEHEMAKENLLIEGRNAAAVDVARAMNVPAAFIDATVGGTSLSYQNAASRMIELVTFGVEPLMSAIEARLNQPDMHADHLANPLKFDPAALLDAIPTTPTIGAQPHGENS”, for which the protein production result was “not failed”. Consider “DEETKAFEALLSNIVKPVASDIQARTVVLTWSPPSSLINGETDESSVPELYGYEVLISSTGKDGKYKSVYVGEETNITLNDLKPAMDYHAKVQAEYNSIKGTPSEAEIFTTLSCEPDIPNPPRI”, for which the protein production result is “not failed”. For “DEGYWDCSVCTFRNSAEAFKCMMCDVRKGTSTRKPRPVSQ” the value was “not failed”.

For the sequence “DFELLHKLGGGNYGDVHLASVKDCNFVCALKRLSIKKLADFDIATQLRREIEIAFNTRHKYLLRTYAYFFDETDIYLIMEPCSNGMLYTELNRVKCFAPPTAARYVAQLAEALLYLHQHHILHRDIKPENILLDHNNNIKLADFGWSVHDPDNRRKTSCGTPEYFPPEIVGRQAYDTSADLWCLGIFCYELLVGKTPFVGKDTDQICKNIHSMHFKIPENIPSEAKDLIANLLLRDGSRRLALHRVVNHQFLLKYYYLPNNL”, the protein production result is reported as “not failed”. On to “DFPKINHGILYDEEKYKPFSQVPTGEVFYYSCEYNFVSPSKSFWTRITCAEEGWSPTPKCLRLCFFPFVENGHSESSGQTHLEGDTVQIICNTGYRLQNNENNISCVERGWSTPPKCRSTISAEKCGPPPPIDNGDITSFLLSVYAPGSSVEYQCQNLYQLEGNNQITCRNGQWSEPPKCLDPCVISQEIMEKYNIKLKWTNQQKLYSRTGDIVEFVCKSGYHPTKSHSFRAMCQNGKLVYPSCEEK”, for which the protein production result is reported as “not failed”.

For the sequence “DFRASATRPFTGEEYLASLRDDREIYIYGDRVKDVTSHPAFRNAAASMARLYDALHDPQSKEKLCWETDTGNGGYTHKFFRYARSADELRQQRDAIAEWSRLTYGWMGRTPDYKAAFGSALGANPGFYGRFEDNAKTWYKRIQEACLYLNHAIVNPPIDRDKPVDQVKDVFISVDEEVDGGIVVSGAKVVATNSALTHYNFVGQGSAQLLGDNTDFALMFIAPMNTPGMKLICRPSYELVAGIAGSPFDYPLSSRFDENDAILVMDKVFIPWENVLIYRDFERCKQWFPQGGFGRLFPMQGCTRLAVKLDFITGALYKALQCTGSLEFRGVQAQVGEVVAWRNLFWSLTDAMYGNASEWHGGAFLPSAEALQAYRVLAPQAYPEIKKTIEQVVASGLIYLPSGVRDLHNPQLDKYLSTYCRGSGGMGHRERIKILKLLWDAIGSEFGGRHELYEINYAGSQDEIRMQALRQAIGSGAMKGMLGMVEQCMGDYDENGWTVPHLHNPDDIN”, the protein production entry is listed as “failed”.

As to “DGAVQYYDGAVTEITEQKRQEQQLRQSRERWRRLVEKLQDGLHIAVDGDIRYINPAGAEILGADAPDDVIGHSLWDFVALEQAQQEIFEDRLRKIYRERTSTAPQEMEITGLNGERRVIESYTVPIKFDGEQAGQTVFRDITEQKEMEQALREREARLRSITENVS”, the protein production entry is on record as “failed”. With “DHKDLIVVAAKHGYALADRNTGQLSYIRKVWDEQEDPEKARRMRFNDGAVDSHGRFWAGSMNDPKVQKPTNEGVLFRLDPDLQLHRMVEGVSIPNGIGWNLRDDTMYFTDSPTAKIFAFDFDASTGTISNRRVHYDVGEPMEPDGFAIDEEGCIWSAIYGGGKIIRISPEGKLIGEISFPTRNITCPTFVGTELFVTTAKDDVNDEQFPESVRYGGRVYRIDVGVRGKPKNEFRFQK” the entry was “failed”.

Regarding “DIENSPIKDDNSIIEIFSYGCHYCAINEDNVSQLENRMPEGTRFIRLHISSDKTTGLGRFAPVFATLSVMGIEPQHRQSAYKAVLDDNSDLSDNRQLETWLKANDIDVAKYQQVSQSAEVKALISYMTAVTAHYKIDATPTFIVGKKWIALQDREFPAFSDHLLSLLEHD”, the protein production entry was “failed”. For “DISSTEIWDAIRRNSFLLYYQPKVDAKTNELIGFEGLIRLKTATAILAPADFFEDIALLNATREMQDFVAETAIEQINQLGGRFSISINIPAHYVVSSNYMTFLYDYVKEHLKYPECLEIEIIERGEITELAVADKNLRKIKKLGVTVSMDDFGKGYSSLAYLRSLPIDIVKTDMSFIALLKTDRKQQIIIQAIVNLCHDLGGKVVTEGVEDIEQVKTLREMKVDYFQGYYFSRP” the value was “not failed”. For “DLDGLLQRTVERARDMLDADSAFLLLATDDETELEVRASTGLPSARQRFARVPVDAGPGRYGSARMPAVHDDLTAVPGAVPLLSGTGMRSVVTVPLKVEGRLTGSLGVAAESPSRYSNEEALRLQFAADRIALAVESA”, the protein production entry was “failed”. For “DLEFQKGVEQILNQYFNSELASGNTKYSEGVYAVVLNPNTGAVLSMAGLEHDLKTGEVSSNALGAVTEVFTPGSVVKGATLTAGWENGVLSGNQVLNDQPIQFAGSSPINSWFTNGSTPLTASQSLEYSSNTYMVQLALKLMGQDYHSGMTLSTDGYKEAMEKLRATYAQYGLGVSTGIDLPGESKGYTPEHYDPSNVLTESFGQFDNYTAMQLAQYAAAVANGGKRIAPHLVEGIYDNNKTGGLGNLVQSIDTKVLNNVSISSDDMGIIKEGFYNVVNGGSYATGKTLAKGASVPISAKTGTAEAYVTGDDGKSVYTSNLNVVAYAPSSNPQIAVAVVLPHETDLHGTTSHAITRDIINLYQKMYPMNQ” the value was “failed”; for “DLEVHGDKDDAELLIIGWGGTYGHLYETMERMRNAGKKVALAHFRFINPLPKNTAEVLQRYPKAVVAEQNLGQFALYLRGEVPGFHPLQFNRVTGQPLVMSEMVEVFTQMMEEK”, “failed”. For “DLQAYLQAHYDVLEGKIQLDINGTEIQKGVWVGSGAIIEPGAILNPPCVIGDNCRIESGAVIDSLSVIGNNNVIERDSSVKRSVIWDGNYIEYGSK” the value was “failed”; for “DLRSLFQTTVTEVRKLLVADRVMIIKVRQNKNFSWGEIQAEAQTDDKLCLLPPKERVPLSSRWIDHFAKGLILAMDDTDDQRADFDQSMLALAKANLVVPLFSGDRLWGVLSVHQCDGPRVWESSDIEFALKIALNLGVALQQAELLTESQRRSTALQSALGEVEAQKDYLARIAEEERALTRVIEGIRQTL”, “failed”. For “DPDEDSDNSAIYVQGLNDSVTLDDLADFFKQCGVVKMNKRTGQPMIHIYLDKETGKPKGDATVSYEDPPTAKAAVEWFDGKDFQGSKLKVSLARKKPPMN” the value was “not failed”; for “DRNSYSKTDYDATFMRMKEDHMKNGQLKPGYNLQIATNSQFVLSYNVYQNPTDTRTMIPFLNSIQETYGHLPEYIVADAGYGSESNYKAIIDDFNRTPLITYGMFIKDKTKKYKSDIFNTQNWNYDEIN”, “failed”. Turning to “DSGYSRETRALLFRAYRHDPTFAYLFNAEREGYEQRVLATIRQLVKQHFLQNQPALGLFLEDRLVGVALIAPPLRRLGVTESWAWRLRMVMDTGLGCTQRYLAYYNAVLACLPSETVHVLPLIGLDPEFQGQKMGQDLSEQLLAALHDWCAVDENSQGIVVDTGNPRYLEFYKRQGYEEIGEIAVGPV”, the protein production result is given as “not failed”.

On to “DSKDLALCSMILTEMETHEDAWPFLLPVNLKLVPGYKKVIKKPMDFSTIREKLSSGQYPNLETFALDVRLVFDNCETFNEDDSDIGRAGHNMRKYFEKKWTDTFK”, for which the protein production entry is “not failed”.

Turning to “DSSMKTDVVEHDKDYVVTAELPGFKKDDIHVDYHDETLRISGKTEVNQSAKDDDGRILRQERRSQNVARSFYLPGIDLKNVKATYADGILTLTLPKQTEVDGSHEISID”, the protein production result is on record as “failed”. Turning to “DTRWLAFNIQRAVFSDRRVREAITLAFDFEWMNKALFYNAWSRTNSYFQNTEYAARNYPDAAELVLLAPMKKDLPPEVFTQIYQPPVSKGDGYDRDNLLKADKLLNEAGWVLKGQQRVNATTGQPLSFELLLPASSNSQWVLPFQHSLQRLGINMDIRKVDNSQITNRMRNRDYDMMPRLWRAMPWPSSDLQISWSSEYINSTYNAPGVQSPVIDSLINQIIAAQGNKEKLLPLGRALDRVLTWNYYMLPMWYMA”, the protein production entry is on record as “failed”. Consider “DVTYDGHPVPGSPYTVEASLPPDPSKVKAHGPGLEGGLVGKPAEFTIDTKGAGTGGLGLTVEGPCEAKIECSDNGDGTCSVSYLPTKPGEYFVNILFEEVHIPGSPFKADIEMPFDPS”, for which the protein production entry is “not failed”.

With “EALQGLLGAGWWELCPDTAEILLASRLAASLHLPEDGARLNVQAWLELIHPADRGELSSRLQELKLGKPLLLNVRLHEPDPSAPQRWYRLQGQALGRGESQRLVGFMLDISD”, the protein production result is “failed”. With “EAPLLYGDSSPEIVLVGHGSTYGVIKEIVDIFSKDKKIAMMHFSQIYPFPERDRFDYIEFLKNANLVISVENNATGQFAKLMRAETGFEFARQILKYDGRPFTIEKLKEEIDAC”, the protein production result is “not failed”.

With “ECTIKNNIENILRNSYINVGYEEVRSPTLEFYDVYNLENQPISQEKMYKLFDNTGRILVLRPDMTTPIARICATKLKNRVYPLKLSYTGNIYRMNKALNGKISEITQSGIEILGFSSLKADAEVIITAIKAILKTGLKNFKIEIGQVEFFKSIISDTALKEQDTEKLRNFIENKNFSKVEEFILRNSDLIGETSSKVLMNLPNLFGGKEVIEKAEQLTSNKQAIEALKKVRDLYDIVKRAGFGEYILIDLGMVQHINYYTGLIFRGYAHGIGDDLLSGGRYDKLLGQFGYDIPATGLAINVDNLVA”, the protein production entry was “failed”. With “EEGLEIATLKRIVADMHAAAETAGVHIVTGDTKVVPKGTCDKLYITTAGVGIIPEGRTSADPQIGDAIIVSGPIADHGMAVMMARGDLAISAPIESDTRSVNGQIEALYAAGVTPRWMRDATRGGLATVMNELARATGLGVALNDPLPVRDMTRAACDMLGIDPMYVANEGTFVAIVPADQVDTALATIPEASCIGQIVEQPAASVVLRTGFGGSRMVDMLVGDPLPRIC” the entry was “failed”; with “EELIEIREARMDDLDTIAKFNYNLAKETEGKELDMDVLTKGVKALLLDERKGKYHVYTVFDKVVAQIMYTYEWSDWRNGNFLWIQSVYVDKEYRRKGIFNYLFNYIKNICDKDENIVGMRLYVEKENINAKATYESLNMYECDYNMYEYEVIHS”, “not failed”. For “EFYCEVLLLDESKLTLTTQQQGIKKSTKGSVVLDHVFHHVNLVEIDYFGLRYCDRSHQTYWLDPAKTLAEHKELINTGPPYTLYFGIK” the value was “failed”; for “EIAVPTLFVHGYSGTANSFKGMINRLADDGIVTESLVMTVAADGSVSTTGSYDKFSHNPTIQVIFEDNKSSMVNQTQWIQNVMKELKNNYHIEKVDAVGHSMGGVSLTSYIEKVGSDKAYPVLENLVLIGAPLNGLVVGDNGVTAYDLTDEGPKQSSDRYSEFMKNKQKIPTNLQVLNIAGDMLDGTKSDGSVSVASALSGKFIFEGQAKSYEEKIFTGKKAAHSKLHENTDVDAKVANFLWGTEKVD”, “failed”.

Consider “EITSANTEWFFNPNAYVIIAESVESGKIVGGARIHIVGGTQPLPIEDAIGKMDPHIYKLVEEHGKKGSGELCGLWNAREVAGMGISTMLTRAAIALAIQLNLSTLFVICAERTYQNIFKDQGFEIIP”, for which the protein production result is “failed”.
